Numbering of substitutions follows the chain as printed. Names and notes keep the numbering of the source. Values belong to the binder of their own block, whether it stands above or below them.
Experiments:
[1] = target: T1, soluble human FcRH5 protein fragment (human) (UniProt Q96RD9); assay: SPR screening, human IgG capture
T1 sequence: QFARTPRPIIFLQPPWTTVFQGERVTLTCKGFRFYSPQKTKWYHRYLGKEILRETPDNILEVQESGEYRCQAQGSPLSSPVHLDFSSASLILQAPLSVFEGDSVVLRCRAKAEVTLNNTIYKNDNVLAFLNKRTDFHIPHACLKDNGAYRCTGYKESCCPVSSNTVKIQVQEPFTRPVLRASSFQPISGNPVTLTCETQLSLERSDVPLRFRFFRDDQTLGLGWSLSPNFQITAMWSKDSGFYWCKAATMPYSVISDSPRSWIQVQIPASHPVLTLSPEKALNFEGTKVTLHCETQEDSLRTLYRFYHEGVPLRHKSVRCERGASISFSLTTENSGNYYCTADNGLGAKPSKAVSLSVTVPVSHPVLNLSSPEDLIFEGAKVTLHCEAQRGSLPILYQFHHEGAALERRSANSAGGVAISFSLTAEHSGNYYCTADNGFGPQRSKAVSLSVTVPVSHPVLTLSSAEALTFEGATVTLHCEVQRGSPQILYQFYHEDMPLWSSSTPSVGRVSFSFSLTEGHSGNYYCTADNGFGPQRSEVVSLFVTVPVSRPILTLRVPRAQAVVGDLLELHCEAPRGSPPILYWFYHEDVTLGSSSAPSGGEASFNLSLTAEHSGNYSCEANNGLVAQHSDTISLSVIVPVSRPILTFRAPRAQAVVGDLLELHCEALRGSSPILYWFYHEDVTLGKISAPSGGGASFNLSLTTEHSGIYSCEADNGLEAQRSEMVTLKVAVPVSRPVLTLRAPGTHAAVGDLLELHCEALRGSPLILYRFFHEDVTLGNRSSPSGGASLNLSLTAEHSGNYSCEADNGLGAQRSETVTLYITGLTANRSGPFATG

[2] = target: T2, soluble cynomolgus FcRH5 protein fragment (cynomolgus monkey); assay: BIACORE
T2 sequence: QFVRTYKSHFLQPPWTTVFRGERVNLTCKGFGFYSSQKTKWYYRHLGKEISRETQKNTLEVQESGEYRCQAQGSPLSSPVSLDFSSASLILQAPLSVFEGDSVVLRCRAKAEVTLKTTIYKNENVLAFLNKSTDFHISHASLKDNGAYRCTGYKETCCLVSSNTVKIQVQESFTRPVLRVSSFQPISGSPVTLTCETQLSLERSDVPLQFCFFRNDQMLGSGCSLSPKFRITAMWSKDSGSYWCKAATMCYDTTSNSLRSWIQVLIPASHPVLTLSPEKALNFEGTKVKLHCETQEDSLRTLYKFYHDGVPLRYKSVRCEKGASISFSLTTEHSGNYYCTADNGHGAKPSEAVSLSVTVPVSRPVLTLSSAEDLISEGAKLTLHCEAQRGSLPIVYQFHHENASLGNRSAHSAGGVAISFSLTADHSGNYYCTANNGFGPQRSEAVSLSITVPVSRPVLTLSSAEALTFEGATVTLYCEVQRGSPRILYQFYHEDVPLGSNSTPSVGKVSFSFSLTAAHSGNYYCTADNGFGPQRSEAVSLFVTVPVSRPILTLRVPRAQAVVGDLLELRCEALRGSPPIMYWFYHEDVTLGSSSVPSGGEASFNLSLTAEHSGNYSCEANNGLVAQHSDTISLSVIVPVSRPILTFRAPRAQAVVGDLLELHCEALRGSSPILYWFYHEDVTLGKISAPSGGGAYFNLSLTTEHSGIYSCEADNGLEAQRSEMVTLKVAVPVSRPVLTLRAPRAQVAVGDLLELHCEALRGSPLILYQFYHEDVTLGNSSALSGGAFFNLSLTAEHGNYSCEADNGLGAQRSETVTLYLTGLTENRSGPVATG

[3] = target: T2, soluble cynomolgus FcRH5 protein fragment (cynomolgus monkey); assay: BIACORE, hIgG capture, 1:1 model, monovalent
[4] = target: T2, soluble cynomolgus FcRH5 protein fragment (cynomolgus monkey); assay: SPR, human IgG capture, 1:1 model

B1: hu1G7.v1 heavy chain W52F + light chain of hu1G7.v1.6 (antibody, part only; not given: hu1G7.v1.6 light chain, V domains shown, part only)
VH: EVQLVESGPGLVKPSETLSLTCTVSGFSLTRFGVHWVRQPPGKGLEWLGVIFRGGSTDYNAAFMSRLTISKDNSKNQVSLKLSSVTAADTAVYYCSNHYYGSSDYALDNWGQGTLVTVSS
Kd [1]: 81 nM

B2: hu1G7.v1 heavy chain W52L + light chain of hu1G7.v1.6 (antibody, part only; not given: hu1G7.v1.6 light chain, V domains shown, part only)
VH: B1 VH with F52L
Kd [1]: 250 nM

B3: hu1G7.v93/38E4.v1 TDB (bispecific antibody, V domains shown)
VH 1: B1 VH with L29T, F52W, M64V, S103P
VL 1: DIQMTQSPSSLSASVGDRVTITCKASQDVSNLVVWFQQKPGKAPKLLIYSGSYRYSGVPSRFSGSGSGTDFTLTISSLQPEDFATYYCQQHYSPPYTFGQGTKVEIK
VH 2: EVQLVQSGAEVKKPGASVKVSCKASGFTFTSYYIHWVRQAPGQGLEWIGWIYPENDNTKYNEKFKDRVTITADTSTSTAYLELSSLRSEDTAVYYCARDGYSRYYFDYWGQGTLVTVSS
VL 2: DIVMTQSPDSLAVSLGERATINCKSSQSLLNSRTRKNYLAWYQQKPGQSPKLLIYWTSTRKSGVPDRFSGSGSGTDFTLTISSLQAEDVAVYYCKQSFILRTFGQGTKVEIK
Kd [2]: 8.1 nM

B6: hu1G7.v1 heavy chain M64V + light chain of hu1G7.v1.6 (antibody, part only; not given: hu1G7.v1.6 light chain, V domains shown, part only)
VH: B1 VH with F52W, M64V
Kd [1]: 2.7 nM

B8: hu1G7.v1 heavy chain M64F + light chain of hu1G7.v1.6 (antibody, part only; not given: hu1G7.v1.6 light chain, V domains shown, part only)
VH: B1 VH with F52W, M64F
Kd [1]: 2.6 nM

Next, values leading:

Kd [1]: 2.7 nM
B4: hu1G7.v1 heavy chain M64I + light chain of hu1G7.v1.6 (antibody, part only; not given: hu1G7.v1.6 light chain, V domains shown, part only)
VH: B1 VH with F52W, M64I

Kd [1]: 530 nM
B5: hu1G7.v1 heavy chain W52Y + light chain of hu1G7.v1.6 (antibody, part only; not given: hu1G7.v1.6 light chain, V domains shown, part only)
VH: B1 VH with F52Y

Kd [1]: 110 nM
B7: hu1G7.v1 heavy chain W52H + light chain of hu1G7.v1.6 (antibody, part only; not given: hu1G7.v1.6 light chain, V domains shown, part only)
VH: B1 VH with F52H

Kd [3]: 6.76 nM | Kd [2]: 7.8 nM | Kd [4]: 6.8 nM | koff [4]: 0.0008 s⁻¹ | kon [4]: 100000 M⁻¹ s⁻¹
B9: hu1G7.v85/38E4.v1 TDB (bispecific antibody, V domains shown)
VH 1: B1 VH with F52W, M64V
VL 1: B3 VL 1 with S30R
VH 2: B3 VH 2
VL 2: B3 VL 2
